Reference: PMC9208311

Target: zebrafish procaspase-3b (CP-C117S) (zebrafish (Danio rerio))
Experiment: SEC; Superdex75 Increase 10/300GL, 25 uM protein, 100 ul loaded, dialysed ~16 h at 25°C; citrate buffer pH 5, 6 and 6.5, phosphate buffer pH 7.5 and 8; column standardised with LMW calibration kit

stoichiometry N: 2
Substance: zebrafish procaspase-3b (CP-C117S) (enzyme)
